Test results published in patent publication US20100298225A1, “PEPTIDE GAP JUNCTION MODULATORS” (priority 2007, published 2010).
“Also recorded” adds a separate entry of the source.

Tests used:
[1] = molecular target: T1, carboxyl terminal domain (CT) of Cx43 (Rattus norvegicus, UniProt P08050); assay: Peptide binding to Cx43CT determined using surface plasmon resonance (SPR); settings: immobilised recombinant Cx43CT
T1 construct: GST (N, cleaved yes); made in house; host or cells: E. coli BL-21
T1 sequence (P08050 255-382): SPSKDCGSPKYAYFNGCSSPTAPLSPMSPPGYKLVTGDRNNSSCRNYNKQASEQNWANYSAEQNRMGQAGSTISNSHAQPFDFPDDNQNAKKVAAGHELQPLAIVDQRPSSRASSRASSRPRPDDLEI
Method: 277(39):36706-36714 (2002), which is hereby incorporated by reference in its entirety. Briefly, cDNA derived from rat Cx43 was inserted into pGEX-6P-2 (Amersham) and expressed in E. coli (BL-21). The resultant GST-fusion protein was cleaved from the GST PreScission Protease® (Amersham Biosciences). The recombinant product after cleavage contained the sequence 255-382 of rCx43 preceded by four additional amino acids (GPLG). Protein concentration was measured using the Bio-Rad DC Protein Assay. Protein purity was assessed by SDS-PAGE.
Recombinant Cx43CT was covalently bound to a carboxylmethyl dextran matrix (Salamon et al., “Surface Plasmon Resonance Spectroscopy as a Tool for Investigating the Biochemical and Biophysical Properties of Membrane Protein Systems. II: Applications to Biological Systems,” Biochim. Biophys. Acta 1331(2):131-152 (1997), which is hereby incorporated by reference in its entirety). Specific peptides were presented and, when feasible, dissociation constants (KD) were calculated from the time course of binding and unbinding of the ligand, using a 1:1 (Langmuir) association and dissociation kinetic model (Biacore software package). In both phases (association and dissociation), the first 5-8 seconds of recording were not included in the fit, to avoid artifacts resulting from peptide distribution within the flow cells (Lang et al., “Surface Plasmon Resonance as a Method to Study the Kinetics and Amplitude of Protein-protein Binding,” in PRACTICAL METHODS IN CARDIOVASCULAR RESEARCH 936-947 (Stefan Dhein, Friedrich Wilhelm Mohr & Mario Delmar eds., 2005), which is hereby incorporated by reference in its entirety).
The peptides shown in table 2 and 3 were tested for binding to the carboxyl terminal domain (CT) of Cx43 using Surface Plasmon Resonance (“SPR”). SPR is a method that was used to identify the original RXPE sequence (Shibayama et al., “Identification of a Novel Peptide that Interferes with the Chemical Regulation of Connexin-43,” Circ. Res. 98:1365-72 (2006)). The amplitude of the response is also a function of the mass of the ligate, and the normalized data according to the individual peptide Mw's are shown in table 3.

[2] = molecular target: T2, Cx43-expressing N2a cells (Rattus norvegicus, UniProt P08050); assay: Dual patch clamp: octanol-induced uncoupling, junctional conductance between cell pairs; assay type: cell-based; settings: for Effect on octanol-induced uncoupling: Vj 60 mV
T2 construct: expressed in transfected cells; host or cells: N2a (neuroblastoma) cells
T2 sequence (P08050 whole entry): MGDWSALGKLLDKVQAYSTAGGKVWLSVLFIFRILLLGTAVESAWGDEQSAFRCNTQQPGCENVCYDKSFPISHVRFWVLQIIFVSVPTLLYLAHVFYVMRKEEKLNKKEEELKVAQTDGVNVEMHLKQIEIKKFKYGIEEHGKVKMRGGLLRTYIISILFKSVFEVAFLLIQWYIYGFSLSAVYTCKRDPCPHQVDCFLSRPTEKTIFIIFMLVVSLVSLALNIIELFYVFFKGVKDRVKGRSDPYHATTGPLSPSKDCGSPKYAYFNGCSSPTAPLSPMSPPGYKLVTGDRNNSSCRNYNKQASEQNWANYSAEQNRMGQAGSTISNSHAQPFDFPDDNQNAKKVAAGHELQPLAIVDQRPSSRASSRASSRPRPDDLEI
Method: Experiments were conducted on N2a (Neuroblastoma) cells. Cx43 was expressed either in a lac-switch stable system (induced by 0.1-1.0 mM of IPTG (Zhong et al., “LacSwitch II Regulation of Connexin43 cDNA Expression Enables Gap-junction Single-channel Analysis,” Biotechniques 34(5):1034-1034, 1041-1044, 1046 (2003), which is hereby incorporated by reference in its entirety)) or transiently using an IRES plasmid coding for eGFP (Seki et al., “Modifications in the Biophysical Properties of Connexin43 Channels by a Peptide of the Cytoplasmic Loop Region,” Circ. Res. 95(4):e22-e28 (2004); Seki et al., “Loss of Electrical Communication, but Not Plaque Formation, After Mutations in the Cytoplasmic Loop of Connexin43,” Heart Rhythm. 1(2):227-233 (2004), which are hereby incorporated by reference in their entirety). M257 (a mutant of Cx43 truncated at amino acid 257 (Morley et al., “Intramolecular Interactions Mediate pH Regulation of Connexin43 Channels,” Biophys. J. 70(3):1294-1302 (1996), which is hereby incorporated by reference in its entirety)) was transiently expressed in N2a cells also using an eGFP-containing IRES plasmid. Cells were placed on the stage of an inverted microscope equipped for epifluorescence (Nikon Diaphoto200, Filter: 520 to 560 nm). Junctional current (I) was recorded from eGFP-positive cell pairs in a dual-whole-cell voltage clamp configuration (holding potentials: −40 mV; transjuctional voltage, Vj, +[…]; step duration, 10-30 seconds). Patch pipettes were filled with a cesium-containing solution (Seki et al., “Modifications in the Biophysical Properties of Connexin43 Channels by a Peptide of the Cytoplasmic Loop Region,” Circ. Res. 95(4):e22-e28 (2004); Seki et al., “Loss of Electrical Communication, but Not Plaque Formation, After Mutations in the Cytoplasmic Loop of Connexin43,” Heart Rhythm. 1(2):227-233 (2004), which are hereby incorporated by reference in their entirety). For the low pH experiments, HEPES was replaced by MES (10 mM). Pipette resistance was 4.0-6.0MΩ. Synthetic peptides were diluted in the pipette solution to a final concentration of 0.1 mM. During recording, cells were kept at room temperature in a cesium-containing solution (Seki et al., “Modifications in the Biophysical Properties of Connexin43 Channels by a Peptide of the Cytoplasmic Loop Region,” Circ. Res. 95(4):e22-e28 (2004); Seki et al., “Loss of Electrical Communication, but Not Plaque Formation, After Mutations in the Cytoplasmic Loop of Connexin43,” Heart Rhythm. 1(2):227-233 (2004), which are hereby incorporated by reference in their entirety). For some experiments, octanol (2.0 mM) was superfused during recording. Data acquisition and recording, and criteria for single channel detection were as reported in Seki et al., “Modifications in the Biophysical Properties of Connexin43 Channels by a Peptide of the Cytoplasmic Loop Region,” Circ. Res. 95(4):e22-e28 (2004) and Seki et al., “Loss of Electrical Communication, but Not Plaque Formation, After Mutations in the Cytoplasmic Loop of Connexin43,” Heart Rhythm. 1(2):227-233 (2004), which are hereby incorporated by reference in their entirety.
Compounds were tested for their ability to interfere with octanol-induced uncoupling. Compounds are tested for their ability to interfere with acidification induces uncoupling.
Experiments were modeled after those described in Shibayama et al (2006). Junctional conductance between Cx43-expressing N2a cell pairs was assessed using conventional dual patch clamp. Peptides were diluted in the patch pipette solution and the cells will be exposed either to octanol or to a low intracellular pH. Control experiments were carried out in the absence of the compound. The results are shown in FIGS. 3A-E, which are graphs of the time course of octanol-induced changes in coupling recorded from Cx43-expressing N2a cells. FIGS. 3A-E relate to peptides 2517, 2518, 2529, 2520 and 2624 respectively. […]

[3] = 0.1 mM peptide in internal pipette solution, octanol superfusion

Row | Substance | SPR respons ([1]; peptide 25 uM) [arbitrary units] | SPR respons ([1]; peptide 100 uM) [arbitrary units] | SPR respons ([1]; peptide 250 uM) [arbitrary units] | SPR respons ([1]; peptide 500 uM) [arbitrary units] | SPR respons ([1]; peptide 1 mM) [arbitrary units] | Effect on octanol-induced uncoupling [2, 3] | Ability to re-open gap junctions closed by the uncoupler (revert uncoupled cells to coupled) [2, 3] | Average junctional conductance (Gj) as a function of time after onset of octanol ([2]; 0.1 mM peptide in pipette, Gj relative to value before octanol, N=7 pairs) | Cell pairs that remained coupled / uncoupled following onset of octanol superfusion ([2]; seven cell pairs, peptide in pipette, uncoupling = zero junctional current at 60-mV pulse)
1 | Ac-Arg-Arg-Asn-Tyr-Arg-Arg-Asn-Tyr-NH2 (Ac-RRNYRRNY-NH2) [Compound 2497] | 30.2 | 84.2 | 201.5 | 327.5 | 565.2 | prevented octanol-induced uncoupling; also recorded: preventing the uncoupling of GJ | – | – | –
2 | Ac-Arg-Arg-Asn-Tyr-Gly-Gly-Gly-Ser-Ala-Val-Pro-Phe-Tyr-Ser-His-Ser-Arg-Arg-Asn-Tyr-NH2 (Ac-RRNYGGGSAVPFYSHSRRNY-NH2) [Compound 2366] | – | – | – | – | – | prevented octanol-induced uncoupling | able to revert uncoupled cells to couple cells; also recorded: re-open gap junctions that were initially closed by the uncoupler | decreased at first and then increased | uncoupled and then recoupled
